Laboratory results published in patent publication US7037674B1, “Cytochrome P450 reductases from poppy plants” (priority 1997, dated 2006).
Read-outs that look alike come from different tables or passages of the source.

Test system: cytochrome P-450 reductase from P. somniferum cell suspension cultures
Details: for Km: read-out: Km value, purified P. somniferum reductase (mixture of two isozymes)
Protocol: Purification and sequence analysis. Cells were harvested from seven-day-old suspension cultures of P. somniferum by vacuum filtration, immediately shock frozen and stored at −20° C. All of the following operations were carried out at 4° C. 500 g frozen tissue were then homogenised with a mortar and pestle in 1 liter 0.1 M tricine/NaOH, pH 7.5 containing 15 mM thioglycolic acid. Cell debris was removed by centrifugation at 10,000× g, 30 min. The supernatant was filtered through four layers of cheesecloth and the microsomes were then isolated by MgCl2 precipitation according to (19). […] Microsomal protein was solubilized as follows. 2 mg CHAPS (3[(3-cholamidopropyl)dimethyl-ammonio]-1-propane-sulfonate, Roth) per mg microsomal protein was prepared in 1 mL of 0.1 M tricine/NaOH, pH 7.5 containing 15 mM thioglycolic acid. This solution was added dropwise to the microsomal suspension. 2% (v/v) Emulgen 911 (Kao Corporation) was then added and the solution slowly stirred for 1 h. Membrane fragments were removed by centrifugation at 105,000× g for 60 min. The total activity in the solubilized microsomes was assigned the value 100%. The solubilized cytochrome P-450 reductase was then purified to electrophoretic homogeneity according to (20).
Yeast microsomes were isolated according to either (22) or (23) and the presence cytochrome P-450 reductase was measured as the ability to reduce cytochrome c (24).

Compound	optimal molarity range of the Tricine buffer [mM]	activity declined to (at 100 mM Tricine) [%]	activity declined to (at 1 M Tricine) [%]	pH optimum (in 0.5 M Tricine buffer)	Km [µM]
purified reductase: cytochrome P-450 reductase purified from P. somniferum cell suspension cultures	250 to 500	21	77	8.0	
NC(=O)C1=CN([C@@H]2O[C@H](COP(=O)(O)OP(=O)(O)OC[C@H]3O[C@@H](n4cnc5c(N)ncnc54)[C@H](OP(=O)(O)O)[C@@H]3O)[C@@H](O)[C@H]2O)C=CC1 [NADPH, reference compound]					4.2
cytochrome c [reference compound]					8.3
